Assay results as given in patent US20260103522A1 (published 2026).
Where two headings read alike, the source gives them in different places.

T1: recombinant human FcεRIa extracellular region-mouse IgG2a Fc-6×His fusion protein (human, UniProt P12319 26-205)
T1 chain (part 1 of 2): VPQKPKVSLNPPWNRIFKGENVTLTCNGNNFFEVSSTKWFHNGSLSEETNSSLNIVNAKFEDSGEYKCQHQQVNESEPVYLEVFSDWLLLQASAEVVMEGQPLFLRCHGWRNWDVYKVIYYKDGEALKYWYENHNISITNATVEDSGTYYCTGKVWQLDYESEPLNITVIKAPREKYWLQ
T1 chain (part 2 of 2): HHHHHH

T2: recombinantly expressed human FcεRIa-Fc protein (human, UniProt P12319 26-205)
T2 chain: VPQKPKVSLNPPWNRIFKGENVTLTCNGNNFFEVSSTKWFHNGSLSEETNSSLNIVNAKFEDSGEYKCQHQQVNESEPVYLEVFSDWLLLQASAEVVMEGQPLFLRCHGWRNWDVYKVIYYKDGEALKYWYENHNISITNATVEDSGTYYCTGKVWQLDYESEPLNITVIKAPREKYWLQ

B1: binding protein DB366 (designed binder)
chain: CADSNPRGVSVFLFPPKPKDTLMISRTPEVTCVVVDLAPSKGTVKFNWYVDGVEVHNAKTKPREKQRNGTLTVVSVLTVLHQDWLNGKEYKCKVTHPHLPRALEKTISKAKGQPREPQVYTLPPSREEMTKNQVSLTCLVKGFYPSDIAVEWESNGQPENNYKTTPPVLDSDGSFFLYSKLTVDKSRWQQGNVFSCSVMHEALHNHYTQKSLSLSPGK
B2: binding protein DB-B63 (designed binder)
chain: CADSNPRGVSVFLFPPKPKDTLMISRTPEVTCVVVDLAPSKGTVNFNWYVDGVEVHNAKTKPREKQRNGTLTVVSVLTVLHQDWLNGKEYKCRVTHPHLPRALEKTISKAKGQPREPQVYTLPPSREEMTKNQVSLTCLVKGFYPSDIAVEWESNGQPENNYKTTPPVLDSDGSFFLYSKLTVDKSRWQQGNVFSCSVMHEALHNHYTQKSLSLSPGK
B3: binding protein DB365 (designed binder)
chain: TKKCADSNPRGVSVFLFPPKPKDTLMISRTPEVTCVVVDLAPSKGTVKFNWYVDGVEVHNAKTKPREKQRNGTLTVVSVLTVLHQDWLNGKEYKCKVTHPHLPRALEKTISKAKGQPREPQVYTLPPSREEMTKNQVSLTCLVKGFYPSDIAVEWESNGQPENNYKTTPPVLDSDGSFFLYSKLTVDKSRWQQGNVFSCSVMHEALHNHYTQKSLSLSPGK
B4: Her2-specific binding protein DB872 (antibody)
heavy: EVQLVESGGGLVQPGGSLRLSCAASGFTFTDYTMDWVRQAPGKGLEWVADVNPNSGGSIYNQRFKGRFTLSVDRSKNTLYLQMNSLRAEDTAVYYCARNLGPSFYFDYWGQGTLVTVSSASTKGPSVFPLAPSSKSTSGGTAALGCLVKDYFPEPVTVSWNSGALTSGVHTFPAVLQSSGLYSLSSVVTVPSSSLGTQTYICNVNHKPSNTKVDKKVEPKSCDKTHTCPPCPADSNPRGVSVFLFPPKPKDTLMISRTPEVTCVVVDLAPSKGTVKFNWYVDGVEVHNAKTKPREKQRNGTLTVVSVLTVLHQDWLNGKEYKCKVTHPHLPRALEKTISKAKGQPREPQVYTLPPSREEMTKNQVSLTCLVKGFYPSDIAVEWESNGQPENNYKTTPPVLDSDGSFFLYSKLTVDKSRWQQGNVFSCSVMHEALHNHYTQKSLSLSPGK
light: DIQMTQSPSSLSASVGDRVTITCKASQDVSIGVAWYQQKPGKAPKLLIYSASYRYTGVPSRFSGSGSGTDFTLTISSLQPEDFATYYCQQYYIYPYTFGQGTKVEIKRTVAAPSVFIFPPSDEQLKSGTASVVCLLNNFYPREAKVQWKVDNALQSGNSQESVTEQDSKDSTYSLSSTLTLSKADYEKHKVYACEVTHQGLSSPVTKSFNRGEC
B5: binding protein DB-B64 (designed binder)
chain: CPAPELLGGPSVFLFPPKPKDTLMISRTPEVTCVVVDLAPSKGTVKFNWYVDGVEVHNAKTKPREKQRNGTLTVVSVLTVLHQDWLNGKEYKCKVTHPHLPRALEKTISKAKGQPREPQVYTLPPSREEMTKNQVSLTCLVKGFYPSDIAVEWESNGQPENNYKTTPPVLDSDGSFFLYSKLTVDKSRWQQGNVFSCSVMHEALHNHYTQKSLSLSPGK
B6: binding protein DB177 (designed binder)
chain: CSRDFTPPTVKILQSSCDGGGHFPPTIQLLCLVSGYTPGTINITWLEDGQVMDVDLSTASTTQEGELASTQSELTLSQKHWLSDRTYTCQVTYQGHTFEDSTKKCADSNPRGVSVFLFPPKPKDTLMISRTPEVTCVVVDLAPSKGTVKFNWYVDGVEVHNAKTKPREKQRNGTLTVVSVLTVLHQDWLNGKEYKCKVTHPHLPRALEKTISKAKGQPREPQVYTLPPSREEMTKNQVSLTCLVKGFYPSDIAVEWESNGQPENNYKTTPPVLDSDGSFFLYSKLTVDKSRWQQGNVFSCSVMHEALHNHYTQKSLSLSPGK
B7: binding protein DB364 (designed binder)
chain: DFTPPTVKILQSSCDGGGHFPPTIQLLCLVSGYTPGTINITWLEDGQVMDVDLSTASTTQEGELASTQSELTLSQKHWLSDRTYTCQVTYQGHTFEDSTKKCADSNPRGVSVFLFPPKPKDTLMISRTPEVTCVVVDLAPSKGTVKFNWYVDGVEVHNAKTKPREKQRNGTLTVVSVLTVLHQDWLNGKEYKCKVTHPHLPRALEKTISKAKGQPREPQVYTLPPSREEMTKNQVSLTCLVKGFYPSDIAVEWESNGQPENNYKTTPPVLDSDGSFFLYSKLTVDKSRWQQGNVFSCSVMHEALHNHYTQKSLSLSPGK
B8: Her2-specific binding protein DB871 (antibody)
heavy: EVQLVESGGGLVQPGGSLRLSCAASGFTFTDYTMDWVRQAPGKGLEWVADVNPNSGGSIYNQRFKGRFTLSVDRSKNTLYLQMNSLRAEDTAVYYCARNLGPSFYFDYWGQGTLVTVSSASTKGPSVFPLAPSSKSTSGGTAALGCLVKDYFPEPVTVSWNSGALTSGVHTFPAVLQSSGLYSLSSVVTVPSSSLGTQTYICNVNHKPSNTKVDKKVEPKSCSRDFTPPTVKILQSSCDGGGHFPPTIQLLCLVSGYTPGTINITWLEDGQVMDVDLSTASTTQEGELASTQSELTLSQKHWLSDRTYTCQVTYQGHTFEDSTKKCADSNPRGVSVFLFPPKPKDTLMISRTPEVTCVVVDLAPSKGTVKFNWYVDGVEVHNAKTKPREKQRNGTLTVVSVLTVLHQDWLNGKEYKCKVTHPHLPRALEKTISKAKGQPREPQVYTLPPSREEMTKNQVSLTCLVKGFYPSDIAVEWESNGQPENNYKTTPPVLDSDGSFFLYSKLTVDKSRWQQGNVFSCSVMHEALHNHYTQKSLSLSPGK
light: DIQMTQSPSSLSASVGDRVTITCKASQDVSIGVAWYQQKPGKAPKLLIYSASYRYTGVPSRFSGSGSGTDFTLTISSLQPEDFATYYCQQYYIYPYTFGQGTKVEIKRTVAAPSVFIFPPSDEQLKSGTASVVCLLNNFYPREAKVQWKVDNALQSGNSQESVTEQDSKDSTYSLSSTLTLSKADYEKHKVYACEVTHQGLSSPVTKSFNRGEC

Columns and labels:
[1] = molecular target: T1, recombinant human FcεRIa extracellular …; experiment: BLI
[2] = molecular target: T2, recombinantly expressed human FcεRIa-Fc …; experiment: blocking ELISA; blocking human IgE binding
[3] = molecular target: T2, recombinantly expressed human FcεRIa-Fc …; experiment: blocking ELISA; blocking human IgE binding
[4] = molecular target: T2, recombinantly expressed human FcεRIa-Fc …; experiment: blocking ELISA; blocking human IgE binding

Row | Binder | Kd [1] | IC50 [2] | EC50 [3] | IC50 [4]
1 | B1 | 1.68 nM | 59.7 nM | 8.94 nM | 16.2 nM
2 | B2 |  |  | 6.52 nM | 
3 | B3 | 0.719 nM |  |  | 12.8 nM
4 | B4 | 1.81 nM | 77.4 nM |  | 
5 | B5 | 4.68 nM |  | 24.5 nM | 
6 | B6 |  |  |  | 18.4 nM
7 | B7 | 1.78 nM |  |  | 15.7 nM
8 | B8 | 1.91 nM | 61.2 nM |  | 
